What was measured:
[1] = target: activated factor X (FXa) (human); assay: kinetics of protease inhibition
[2] = target: activated factor XI (FXIa) (human); assay: kinetics of protease inhibition

Sequence of activated factor X (FXa) (human) (P00742 whole entry): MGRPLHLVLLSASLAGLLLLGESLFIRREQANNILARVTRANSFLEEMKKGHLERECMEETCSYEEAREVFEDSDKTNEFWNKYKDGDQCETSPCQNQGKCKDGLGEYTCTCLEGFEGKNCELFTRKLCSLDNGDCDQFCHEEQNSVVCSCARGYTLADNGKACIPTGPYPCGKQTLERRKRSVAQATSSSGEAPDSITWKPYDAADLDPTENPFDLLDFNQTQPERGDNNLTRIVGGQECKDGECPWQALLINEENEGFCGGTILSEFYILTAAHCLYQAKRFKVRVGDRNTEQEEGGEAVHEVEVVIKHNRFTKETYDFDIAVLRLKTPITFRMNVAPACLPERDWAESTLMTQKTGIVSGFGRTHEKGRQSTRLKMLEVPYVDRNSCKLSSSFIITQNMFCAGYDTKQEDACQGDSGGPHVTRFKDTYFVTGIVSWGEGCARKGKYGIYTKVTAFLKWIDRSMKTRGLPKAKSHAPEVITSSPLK

B1: protein Z-dependent protease inhibitor (ZPI), wild type, recombinant human (natural protein)
chain: LAPSPQSPETPAPQNQTSRVVQAPKEEEEDEQEASEEKASEEEKAWLMASRQQLAKETSNFGFSLLRKISMRHDGNMVFSPFGMSLAMTGLMLGATGPTETQIKRGLHLQALKPTKPGLLPSLFKGLRETLSRNLELGLTQGSFAFIHKDFDVKETFFNLSKRYFDTECVPMNFRNASQAKRLMNHYINKETRGKIPKLFDEINPETKLILVDYILFKGKWLTPFDPVFTEVDTFHLDKYKTIKVPMMYGAGKFASTFDKNFRCHVLKLPYQGNATMLVVLMEKMGDHLALEDYLTTDLVETWLRNMKTRNMEVFFPKFKLDQKYEMHELLRQMGIRRIFSPFADLSELSATGRNLQVSRVLQRTVIEVDERGTEAVAGILSEITAYSMPPVIKVDRPFHFMIYEETSGMLLFLGRVVNPTLL
In the case of B1, the ka with equimolar PZ and lipids, no FVa [1] is reported as 1.79e+06 M⁻¹ s⁻¹, the ka with equimolar PZ, lipids and FVa [1] is reported as 296000 M⁻¹ s⁻¹ and the kon [1] is reported as 9200 M⁻¹ s⁻¹. The Kd [2] was 2 nM and the kon [2] was 86200 M⁻¹ s⁻¹.

B2: D293A ZPI (protein Z-dependent protease inhibitor with Asp 293 mutated to Ala), recombinant human (natural protein)
chain: LAPSPQSPETPAPQNQTSRVVQAPKEEEEDEQEASEEKASEEEKAWLMASRQQLAKETSNFGFSLLRKISMRHDGNMVFSPFGMSLAMTGLMLGATGPTETQIKRGLHLQALKPTKPGLLPSLFKGLRETLSRNLELGLTQGSFAFIHKDFDVKETFFNLSKRYFDTECVPMNFRNASQAKRLMNHYINKETRGKIPKLFDEINPETKLILVDYILFKGKWLTPFDPVFTEVDTFHLDKYKTIKVPMMYGAGKFASTFDKNFRCHVLKLPYQGNATMLVVLMEKMGDHLALEAYLTTDLVETWLRNMKTRNMEVFFPKFKLDQKYEMHELLRQMGIRRIFSPFADLSELSATGRNLQVSRVLQRTVIEVDERGTEAVAGILSEITAYSMPPVIKVDRPFHFMIYEETSGMLLFLGRVVNPTLL
With B2 the ka with equimolar PZ and lipids, no FVa [1] was 85000 M⁻¹ s⁻¹, the ka with equimolar PZ, lipids and FVa [1] was 6800 M⁻¹ s⁻¹ and the kon [1] was 9500 M⁻¹ s⁻¹. It also gave a Kd [2] of 2 nM and a kon [2] of 112000 M⁻¹ s⁻¹.

B3: D293A/Y387D ZPI (double mutant of the protein Z-dependent protease inhibitor; P1 residue Y387 changed) (natural protein)
chain: LAPSPQSPETPAPQNQTSRVVQAPKEEEEDEQEASEEKASEEEKAWLMASRQQLAKETSNFGFSLLRKISMRHDGNMVFSPFGMSLAMTGLMLGATGPTETQIKRGLHLQALKPTKPGLLPSLFKGLRETLSRNLELGLTQGSFAFIHKDFDVKETFFNLSKRYFDTECVPMNFRNASQAKRLMNHYINKETRGKIPKLFDEINPETKLILVDYILFKGKWLTPFDPVFTEVDTFHLDKYKTIKVPMMYGAGKFASTFDKNFRCHVLKLPYQGNATMLVVLMEKMGDHLALEAYLTTDLVETWLRNMKTRNMEVFFPKFKLDQKYEMHELLRQMGIRRIFSPFADLSELSATGRNLQVSRVLQRTVIEVDERGTEAVAGILSEITADSMPPVIKVDRPFHFMIYEETSGMLLFLGRVVNPTLL
With B3 the kon [2] was 2600 M⁻¹ s⁻¹.

Reference: publication PMC12018148
